In assay [1] the target is T1, human PD-1 (Sino Biological, Catalog Number: 10377-H08H) (human, UniProt Q15116 25-167).
T1 construct: Bought protein
Description: BLI, Octet RED96e, antibody on AHC sensor, PD-1 100 nM. For orientation: In BLI a coated tip is dipped into the sample, and binding shifts an interference pattern.

Assay [2] concerns the target biotin-labeled monkey PD-1 (Acro, Catalog Number: PD1-C82E6) (monkey (cyno)) (UniProt B0LAJ3). Description: flow cytometry, yeast-displayed Fab, titration of soluble PD-1.
Assay [3] addresses biotin-labeled human PD-1 (Acro, Catalog Number: PD1-H82E4) (human) (UniProt Q15116). Described as above.
Assay [4] addresses T1, human PD-1 (Sino Biological, Catalog …). Kind of assay: BLI, Octet RED96e.
The target in assay [5] is T2, human PD-1 (Acro, Catalog Number: PD-1-H5221) (human, UniProt Q15116 25-167).
T2 construct: Bought protein
Description: BLI, Octet RED96e, antibody on AHC sensor, PD-1 100 nM.

In assay [6] the target is T3, monkey PD-1 (Acro, Catalog Number: PD-1-C5223) (monkey, UniProt B0LAJ3 25-170).
T3 construct: Bought protein; not shown: any purification tag of the vendor's construct (Acro PD-1-C5223)
Described as above.

In assay [7] the target is T2, human PD-1 (Acro, Catalog Number: …). Description: BLI, Octet RED96e.
For assay [8], the target named is T3, monkey PD-1 (Acro, Catalog Number: …). Description: BLI, Octet RED96e.

Data on 4 molecules can be found in patent EP4293046A1 (Shanghai Jemincare Pharmaceuticals Co., Ltd., dated 2023).

T3 sequence (B0LAJ3 entry or part of it limits assumed, form in doubt): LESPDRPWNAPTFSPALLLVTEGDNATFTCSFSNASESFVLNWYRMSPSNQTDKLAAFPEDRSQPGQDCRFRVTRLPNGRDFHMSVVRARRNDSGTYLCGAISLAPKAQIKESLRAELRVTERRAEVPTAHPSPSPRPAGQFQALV
T2 sequence (Q15116 25-167 limits assumed): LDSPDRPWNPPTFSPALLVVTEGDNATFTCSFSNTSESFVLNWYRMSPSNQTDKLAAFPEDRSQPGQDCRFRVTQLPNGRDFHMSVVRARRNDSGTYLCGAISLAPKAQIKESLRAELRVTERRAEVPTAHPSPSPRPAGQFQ
T1 sequence (Q15116 25-167 limits assumed): as above
Chain of biotin-labeled monkey PD-1 (Acro, Catalog Number: PD1-C82E6) (monkey (cyno)) (B0LAJ3 entry or part of it limits assumed): as the sequence (B0LAJ3 entry or part of it limits assumed, form in doubt) above
Chain of biotin-labeled human PD-1 (Acro, Catalog Number: PD1-H82E4) (human) (Q15116 25-167 limits assumed): as the sequence (Q15116 25-167 limits assumed) above

B1: 1910h3hzL3H4 (antibody, V domains shown)
VH: QVQLVQSGAEVKKPGASVKVSCKASGFTFIDYEMHWVRQAPGQGLEWIGGIHPGSGGTAYNQKFKGRATLTADISISTAYMELSRLRSDDTAVYYCTREGFDVGWYFDVWGQGTTVTVSS
VL: DVVMTQSPLSLPVTLGQPASISCRSSQSIVHSDGDTFLEWYQQRPGQSPRLLIYKVSNRFSGVPDRFSGSGSGTDFTLKISRVEAEDVGVYYCFQGSHVPYTFGQGTKLEIK
notes: Humanized antibody; the description mentions human IgG4 S228P and kappa; also called humanized antibody of 46H3A8; 1910h3hzL3 light chain + 1910h3hzH4 heavy chain
In assay [1], B1 registered a Kd of 8.04 nM, a koff of 0.00118 s⁻¹ and a kon of 147000 M⁻¹ s⁻¹.

B2: 41D2HzL4H3 parent sequence displayed on the yeast surface in the form of Fab (Fab, V domains shown)
VH: EVQLVESGGGLVKPGGSLRLSCAASGFTFSNYDMSWVRQAPGKGLEWVSTISGGGSYTYYADSVKGRFTISRDNAKNSLYLQMNSLRAEDTAVYYCVSPYYGMEYWGQGTLVTVSS
VL: DIQLTQSPSFLSASVGDRVTITCKASQDVGTAVAWYQQKPGKAPKLLIYWASTRHTGVPSRFSGSGSGTEFTLTISSLQPEDFATYFCQQYSSYPWTFGGGTKVEIK
Consider B2, for which the Ag50 in assay [2] is 36.1 nM; in assay [3] it was 5.08 nM.

B3: 41D2HzL4H3 (antibody, V domains shown)
VH: EVQLVESGGGLVKPGGSLRLSCAASGFTFSNYDMSWVRQAPGKGLEWVSTISGGGSYTYYADSVKGRFTISRDNAKNSLYLQMNSLRAEDTAVYYCVSPYYGMEYWGQGTLVTVSS
VL: DIQLTQSPSFLSASVGDRVTITCKASQDVGTAVAWYQQKPGKAPKLLIYWASTRHTGVPSRFSGSGSGTEFTLTISSLQPEDFATYFCQQYSSYPWTFGGGTKVEIK
notes: Humanized antibody; the description mentions human IgG4 S228P and kappa; also called parent antibody; humanized antibody of 41D2-2C3D7
B3: the “fold higher affinity than Pembrolizumab” value in assay [4] amounted to 4.2 times. In assay [5], this molecule showed a Kd of 1.27 nM, a koff of 0.000589 s⁻¹ and a kon of 464000 M⁻¹ s⁻¹. In assay [6], this molecule yielded a Kd of 5.2 nM, a koff of 0.00153 s⁻¹ and a kon of 295000 M⁻¹ s⁻¹. In assay [1], this molecule displayed a Kd of 1.92 nM, a koff of 0.000542 s⁻¹ and a kon of 283000 M⁻¹ s⁻¹.

B4: Ab2005Am08 (antibody, V domains shown)
VH: EVQLVESGGGLVKPGGSLRLSCAASGFTFSNYDMSWVRQAPGKGLEWVSTISGGGRYTYYADSVKGRFTISRDNAKNSLYLQMNSLRAEDTAVYYCVSPYYGMEYWGQGTLVTVSS
VL: DIQLTQSPSFLSASVGDRVTITCKASQDVGTAVAWYQQKPGKAPKLLIYWASTRHTGVPSRFSGSGSGTEFTLTISSLQPEDFATYFCQQYSSYPWTFGGGTKVEIK
notes: also called clone YC215H3 as IgG
Regarding B4, the “fold affinity against the parent antibody” value in assay [7] and in assay [8] was ~2 times each time. Moreover, the figures for the Kd in assay [5] and in assay [6] were 0.504 nM and 1.52 nM, respectively. Further, the koff turned out to be 0.00023 s⁻¹ in assay [5] and 0.000486 s⁻¹ in assay [6]. Also, the figures for the kon in assay [5] and in assay [6] were 457000 M⁻¹ s⁻¹ and 320000 M⁻¹ s⁻¹, respectively. The Ag50 in assay [2] was determined as 2.42 nM; in assay [3], 1.26 nM.

Broadly, the Kd is the equilibrium constant for the complex coming apart. One may read the koff as the first-order rate constant of dissociation. Usually kon stands for the rate constant with which the complex forms.
